From patent US20170334962A1 (TEXAS A AND M UNIVERSITY SYSTEM, published 2017)
Positions count from the first letter of the chain named. In names and notes the source's numbering stands. Blank lines part the entries; values can stand above or below the binder they belong to.

Experiments:
[1] = biological target: T1, recombinant soluble mouse FcRn (mouse, UniProt Q61559 22-290; P01887 21-119, limits assumed); assay: SPR (BIAcore T200), fusion immobilized on a CM5 chip, mFcRn as analyte, pH 6.0; value for the higher affinity site; pH 6.0
T1 construct: also called mFcRn
T1 sequence (looked up) 1: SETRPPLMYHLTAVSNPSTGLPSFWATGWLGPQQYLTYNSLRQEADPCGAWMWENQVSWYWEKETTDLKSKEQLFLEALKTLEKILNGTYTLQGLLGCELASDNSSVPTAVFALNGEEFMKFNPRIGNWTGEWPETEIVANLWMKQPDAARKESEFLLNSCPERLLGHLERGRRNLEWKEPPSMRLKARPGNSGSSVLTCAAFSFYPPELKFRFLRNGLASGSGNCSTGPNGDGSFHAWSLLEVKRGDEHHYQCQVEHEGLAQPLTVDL
T1 sequence (looked up) 2: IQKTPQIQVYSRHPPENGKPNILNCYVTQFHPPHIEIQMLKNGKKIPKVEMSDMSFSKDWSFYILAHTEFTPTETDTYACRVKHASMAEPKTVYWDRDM
Protocol: (§1) Equilibrium dissociation constants (KDs) for the binding of Fc-OVA(323-339) (WT, TT-HN and H435A) to recombinant mouse FcRn were determined using surface plasmon resonance (BlAcore T200; GE Healthcare) and previously described methods. CM5 chips were coupled with recombinant Fc(WT)-OVA(323-339), Fc(TT-HN)-OVA(323-339), and Fc(H435A)-OVA(323-339) to densities of ˜500-900 RU followed by injection of mFcRn at various concentrations (1-2000 nM) at a flow rate of 10 μl/min using PBS (pH 6.0 or 7.4; Lonza), 0.01% (v/v) Tween-20 as running buffer. Flow cells were regenerated at the end of each cycle using 0.15 M NaCl, 0.1 M sodium bicarbonate (pH 8.5) buffer. FcRn binds to two sites on IgG-Fc that are not equivalent. […] The data were processed as described previously.

[2] = biological target: T1, recombinant soluble mouse FcRn; assay: SPR (BIAcore T200), fusion immobilized on a CM5 chip, mFcRn as analyte, pH 7.4; value for the higher affinity site
Protocol: as §1

[3] = biological target: T1, recombinant soluble mouse FcRn; assay: SPR (BIAcore T200), fusion immobilized on a CM5 chip, mFcRn as analyte, pH 6.0; value for the higher affinity site
Protocol: as §1

[4] = biological target: T1, recombinant soluble mouse FcRn; assay: SPR (BIAcore T200), fusion immobilized on a CM5 chip, mFcRn as analyte, pH 6.0
Protocol: as §1

[5] = biological target: T1, recombinant soluble mouse FcRn; assay: SPR (BIAcore 2000), Fc-hinge immobilized by amine coupling, soluble mouse FcRn as analyte, pH 6.0; value for the higher affinity site; pH 6.0
Protocol: (§2) Equilibrium dissociation constants of WT and mutated mouse Fc-hinge fragments (IgG1-derived) for binding to recombinant mouse FcRn were determined using surface plasmon resonance and a BlAcore 2000. Mouse Fc-hinge fragments were immobilized by amine coupling chemistry (to a density of ˜250-850 RU) and BlAcore experiments carried out as described previously, using soluble mouse FcRn in Dulbecco's phosphate-buffered saline (DPBS) plus 0.01% Tween pH 6.0 or 7.4 as analyte. FcRn binds to two sites on IgG that are not equivalent. […] The data were processed as described previously.

[6] = biological target: T1, recombinant soluble mouse FcRn; assay: SPR (BIAcore 2000), Fc-hinge immobilized by amine coupling, soluble mouse FcRn as analyte, pH 6.0; value for the higher affinity site
Protocol: as §2

[7] = biological target: T1, recombinant soluble mouse FcRn; assay: SPR (BIAcore 2000), Fc-hinge immobilized by amine coupling, soluble mouse FcRn as analyte, pH 7.4; value for the higher affinity site
Protocol: as §2

Kd [1]: 0.3 µM
B1: mIgG1-Fc(WT)-OVA(323-339) (Fc fusion)
chain: VPRDCGCKPCICTVPEVSSVFIFPPKPKDVLTITLTPKVTCVVVDISKDDPEVQFSWFVDDVEVHTAQTQPREEQFNSTFRSVSELPIMHQDWLNGKEFKCRVNSAAFPAPIEKTISKTKGRPKAPQVYTIPPPKEQMAKDKVSLTCMITDFFPEDITVEWQWNGQPAENYKNTQPIMDTDGSYFVYSKLNVQKSNWEAGNTFTCSVLHEGLHNHHTEKSLSHSPGKGSGGISQAVHAAHAEINEAGRGSGHHHHHH

Kd [2]: 0.0149 µM
Kd [3]: 0.003 µM
B2: mIgG1-Fc(TT-HN)-OVA(323-339) (Fc fusion)
chain: B1 chain with T32Y, T36E, H213K, N214F
notes: The limits of the leader are inferred as for m4; also called Fc(T252Y/T256E/H433K/N434F)-antigen

B3: mIgG1-Fc(H435A)-OVA(323-339) (Fc fusion)
chain: B1 chain with H215A
notes: The limits of the leader are inferred as for m4
binding result [4]: no binding (tested: mFcRn injected at 1-2000 nM)

Kd [5]: 0.218 µM
B4: WT mouse Fc-hinge fragment (IgG1-derived) (other, UniProt P01868 98-324, looked up)
chain: VPRDCGCKPCICTVPEVSSVFIFPPKPKDVLTITLTPKVTCVVVDISKDDPEVQFSWFVDDVEVHTAQTQPREEQFNSTFRSVSELPIMHQDWLNGKEFKCRVNSAAFPAPIEKTISKTKGRPKAPQVYTIPPPKEQMAKDKVSLTCMITDFFPEDITVEWQWNGQPAENYKNTQPIMNTNGSYFVYSKLNVQKSNWEAGNTFTCSVLHEGLHNHHTEKSLSHSPGK
notes: domain: Fc-hinge; Recombinant Fc-hinge made in CHO-S cells by methods analogous to those for the Fc-MBP fusions; also called WT Fc-hinge

Kd [6]: 0.0026 µM
Kd [7]: 0.115 µM
B5: m-set-1 mouse Fc-hinge fragment (IgG1-derived; T252L/T254S/T256F/E380A/H433K/N434F) (other, UniProt P01868 98-324, looked up)
chain: B4 chain with T32L, T34S, T36F, E160A, H213K, N214F
notes: domain: Fc-hinge; also called mutation-set-1

Kd [6]: 0.0011 µM
Kd [7]: 0.0204 µM
B6: m-set-2 mouse Fc-hinge fragment (IgG1-derived; T252Y/T256E/H433K/N434F) (other, UniProt P01868 98-324, looked up)
chain: B4 chain with T32Y, T36E, H213K, N214F
notes: domain: Fc-hinge; also called mutation-set-2; TT-HN
